Measurements reported in US20250066745A1, “MUTANTS AND USE THEREOF” (BGI SHENZHEN, priority 2021, published 2025).

Columns and labels:
[1] = Luminescence activity assay of purified Gaussia luciferase mutants on coelenterazine; format: biochemical; set-up: key to Activity of mutant relative to wild-type Gaussia luciferase without the signal peptide: ratio of mutant luminescence intensity to wild-type Gaussia luciferase; settings: Substrate CTZ (Table 16)
Description: (§1) In this Example, the protein concentration was determined with a BCA quantitative kit (Thermo Scientific™ Pierce™ BCA Protein Assay Kit) accurately. The purified luciferase obtained in Example 5 was diluted with diluent (50 mM Tris-HCl, pH 8.0, 100 mM NaCl, 0.1% (v/v) Tween-20) to 1 μg/mL. The diluted luciferase, taken for 10 μL, was moved into a black 96-well plate, then added with 90 μL of the substrates coelenterazine, fluoro-coelenterazine or coelenterazine derivative ZS2 (purchased from Biolab) which was diluted into 100 μM with the same diluent, and the luminescence intensity of the plate was read with a self-luminescence module of a microplate reader. The mutation site of the mutant, the measured luminescence intensity, the ratio of luminescence intensities of the advantageous mutants to the wild-type Gaussia luciferase without the signal peptide having the sequence shown in SEQ ID NO: 3 are shown in Table 15. The results of catalytic activity assay of the advantageous mutants relative to the wild-type Gaussia luciferase without the signal peptide having the sequence shown in SEQ ID NO: 3 on substrate coelenterazine are shown in FIG. 6. […] The results of catalytic activity assay of the advantageous mutants relative to the wild-type Gaussia luciferase without the signal peptide having the sequence shown in SEQ ID NO: 3 on substrate fluoro-coelenterazine are shown in FIG. 7.
(§2) The new mutant library constructed in Example 7 was screened and tested for substrate specificity. Expression and purification schemes were the same as that in Example 5, and the activity assay scheme was the same as that in Example 6. The respective catalytic activities of combinatorial mutants on coelenterazine, fluoro-coelenterazine or coelenterazine derivative ZS2, and coelenterazine derivative ZS26 (purchased from BIOLAB) were assayed, and comparisons among the substrate specificities of the combinatorial mutants were based on the ratios of catalytic activities on two corresponding substrates.

[2] = Luminescence activity assay of purified Gaussia luciferase mutants on coelenterazine derivative ZS2; format: biochemical; set-up: key to Activity of mutant relative to wild-type Gaussia luciferase without the signal peptide: ratio of mutant luminescence intensity to wild-type Gaussia luciferase; settings: Substrate ZS2 (Table 16)
Description: as §1, §2

B1: P84A E102A S103T E110A V138D: Gaussia luciferase mutant (protein)
chain: MGVKVLFALICIAVAEAKPTENNEDFNIVAVASNFATTDLDADRGKLPGKKLPLEVLKEMEANARKAGCTRGCLICLSHIKCTAKMKKFIPGRCHTYEGDKATAQGGIGAAIVDIPEIPGFKDLEPMEQFIAQVDLCDDCTTGCLKGLANVQCSDLLKKWLPQRCATFASKIQGQVDKIKGAGGD
modifications: SIGNAL (1)..(17)
notes: Gaussia luciferase mutant
Activity of mutant relative to wild-type Gaussia luciferase without the signal peptide [1]: 0.174 | Activity of mutant relative to wild-type Gaussia luciferase without the signal peptide [2]: 4.252

B2: P84A E102S S103T A104G E110A L124M V138E: Gaussia luciferase mutant (protein)
chain: MGVKVLFALICIAVAEAKPTENNEDFNIVAVASNFATTDLDADRGKLPGKKLPLEVLKEMEANARKAGCTRGCLICLSHIKCTAKMKKFIPGRCHTYEGDKSTGQGGIGAAIVDIPEIPGFKDMEPMEQFIAQVDLCEDCTTGCLKGLANVQCSDLLKKWLPQRCATFASKIQGQVDKIKGAGGD
modifications: SIGNAL (1)..(17)
notes: Gaussia luciferase mutant
Activity of mutant relative to wild-type Gaussia luciferase without the signal peptide [1]: 0.375 | Activity of mutant relative to wild-type Gaussia luciferase without the signal peptide [2]: 4.457

B3: A42G Q152K S170S G174N Q175E K178S A182Y G183A: Gaussia luciferase mutant (protein)
chain: MGVKVLFALICIAVAEAKPTENNEDFNIVAVASNFATTDLDGDRGKLPGKKLPLEVLKEMEANARKAGCTRGCLICLSHIKCTPKMKKFIPGRCHTYEGDKESAQGGIGEAIVDIPEIPGFKDLEPMEQFIAQVDLCVDCTTGCLKGLANVKCSDLLKKWLPQRCATFASKIQNEVDSIKGYAGD
modifications: SIGNAL (1)..(17)
notes: Gaussia luciferase mutant
Activity of mutant relative to wild-type Gaussia luciferase without the signal peptide [1]: 0.736 | Activity of mutant relative to wild-type Gaussia luciferase without the signal peptide [2]: 1.751

B4: Q152H Q163D T167S S170N A182L G183A: Gaussia luciferase mutant (protein)
chain: MGVKVLFALICIAVAEAKPTENNEDFNIVAVASNFATTDLDADRGKLPGKKLPLEVLKEMEANARKAGCTRGCLICLSHIKCTPKMKKFIPGRCHTYEGDKESAQGGIGEAIVDIPEIPGFKDLEPMEQFIAQVDLCVDCTTGCLKGLANVHCSDLLKKWLPDRCASFANKIQGQVDKIKGLAGD
modifications: SIGNAL (1)..(17)
notes: Gaussia luciferase mutant
Activity of mutant relative to wild-type Gaussia luciferase without the signal peptide [1]: 1.197 | Activity of mutant relative to wild-type Gaussia luciferase without the signal peptide [2]: 0.698

B5: N27D V29E A30G V31I A32V S33K A36I T37D L40T: Gaussia luciferase mutant (protein)
chain: MGVKVLFALICIAVAEAKPTENNEDFDIEGIVKNFIDTDTDADRGKLPGKKLPLEVLKEMEANARKAGCTRGCLICLSHIKCTPKMKKFIPGRCHTYEGDKESAQGGIGEAIVDIPEIPGFKDLEPMEQFIAQVDLCVDCTTGCLKGLANVQCSDLLKKWLPQRCATFASKIQGQVDKIKGAGGD
modifications: SIGNAL (1)..(17)
notes: Gaussia luciferase mutant
Activity of mutant relative to wild-type Gaussia luciferase without the signal peptide [1]: 0.779 | Activity of mutant relative to wild-type Gaussia luciferase without the signal peptide [2]: 1.379

B6: N27D V29S V31L A32V S33G A36N T37D L40R: Gaussia luciferase mutant (protein)
chain: MGVKVLFALICIAVAEAKPTENNEDFDISALVGNFNDTDRDADRGKLPGKKLPLEVLKEMEANARKAGCTRGCLICLSHIKCTPKMKKFIPGRCHTYEGDKESAQGGIGEAIVDIPEIPGFKDLEPMEQFIAQVDLCVDCTTGCLKGLANVQCSDLLKKWLPQRCATFASKIQGQVDKIKGAGGD
modifications: SIGNAL (1)..(17)
notes: Gaussia luciferase mutant
Activity of mutant relative to wild-type Gaussia luciferase without the signal peptide [1]: 0.981 | Activity of mutant relative to wild-type Gaussia luciferase without the signal peptide [2]: 0.146
